The values below come from patent publication US6897049B1, “Proteins producing an altered immunogenic response and methods of making and using the same” (Genencor International, Inc., priority 1998, dated 2005).

In one data set the test system is naïve human CD4+ T-cells. The experiment in a line: T-cell proliferation assay with differentiated dendritic cells and naïve human CD4+ T-cells (tritium incorporation). It is filed as cell-based. The conditions noted are these: using the methods herein. Here is the method: Fresh human peripheral blood cells were collected from “naïve” humans, i.e., persons not known to be exposed to or sensitized to Bacillus lentus protease, for determination of antigenic epitopes in protease from Bacillus lentus and human subtilisin. Naïve humans is intended to mean that the individual is not known to have been exposed to or developed a reaction to protease in the past. Peripheral mononuclear blood cells (stored at room temperature, no older than 24 hours) were prepared for use as follows: Approximately 30 mls of a solution of buffy coat preparation from one unit of whole blood was brought to 50 ml with Dulbecco's phosphate buffered solution (DPBS) and split into two tubes. […] The cell density of the resultant solution was measured by hemocytometer. Viability was measured by trypan blue exclusion.
From the resulting solution, a differentiated dendritic cell culture was prepared from the peripheral blood mononuclear cell sample having a density of 10^8 cells per 75 ml culture flask in a solution as follows: • (1) 50 ml of serum free AIM V media (Gibco) was supplemented with a 1:100 dilution beta-mercaptoethanol (Gibco). […] Adherent and non-adherent cells were then centrifuged at 600 G for 5 minutes, washed in DPBS and counted. • (4) The prepared dendritic cells were placed into a 96 well round bottom array at 2×10^4/well in 100 microliter total volume of AIM V media. […]

For a further data set, the system named is guinea pig splenocytes. The experiment in a line: T cell epitope mapping with splenocytes of immunized guinea pigs (thymidine incorporation). It is filed as cell-based. The following applies: guinea pigs immunized with 20 μg subtilisin; 15-mer peptides at 5 μM; >10 animals. Here is the method:
B. lentis and B. amyloliquefaciens subtilisin T cell epitope mapping: Guinea pigs were immunized with 20 μg/immunization of subtilisin from either B. lentis or B. amyloliquefaciens. Animals were immunized subcutaneously in adjuvant every two weeks for 10 to 12 weeks. A single cell suspension of guinea pig splenocytes was created from each animal's spleen. Cells were plated at 5×10^5 splenocytes per well in round bottom 96 well plates. 15-mer peptides off-set by 3 amino acids were synthesized by Mimotopes. Peptides were resuspended to 1 mM in DMSO. Peptides were added to the cells at a final concentration of 5 μM. Cultures were incubated for 5 days at 37°, 5% CO2. Wells were pulsed with 0.5 μCi tritiated thymidine, and allowed to incubate for an additional 18 hours. Wells were harvested, and thymidine incorporation assessed.
(In general: Incorporation of labelled thymidine or its analogues reports DNA synthesis.)

Another data set relates to Hartley guinea pigs. The experiment in a line: Guinea pig model of immunogenicity, antigen-specific IgG titers by direct ELISA. Format: in vivo. The protocol:
Guinea pig immunizations: Adult female Hartley guinea pigs were immunized with various doses of B. amyloliquefaciens subtilisin and GP002. The doses were 1, 5, 10, and 20 μg/dose. There were four animals for each dose. Animals were immunized subcutaneously with enzyme in Complete Freund's Adjuvant for the first immunization. All subsequent immunizations were performed in Incomplete Freund's adjuvant. Animals were immunized, and a serum sample taken, every two weeks.
ELISA: A direct ELISA was performed. Costart EIA plates were coated with 10 μg/ml of the immunizing enzyme in PBS overnight at 4° C. Plates were washed and blocked with 1% BSA in PBS. Serum samples were diluted in 1% BSA/PBS, and incubated on the enzymes coated plates for 1 hour. Serum samples were washed out, and biotinylated anti-guinea pig IgG was added at a 1:10,000 dilution in 1% BSA/PBS. The secondary reagent was incubated for 1 hour. The wells were washed, and avidin conjugated horse radish peroxidase was added to the wells at a 1:1000 dilution in 1% BSA/PBS. After 30 minutes, the substrate (ABTS) was added and the OD405 was read after 30 minutes.
Calculation of titers: Background was subtracted from the OD readings, and the results plotted for each individual guinea pig. […] The titer value was calculated from the linear regression equation for an OD=0.5. […]
A general note: ELISA stands for enzyme-linked immunosorbent assay.

The subject of data set [1] is HLA DR3/DQ2 transgenic mice. The data set is described as follows: Immunization of HLA-DR3/DQ2/C2D transgenic mice, antigen-specific IgG by direct ELISA. The conditions noted are these: 2 x 50 μg i.p. Format: in vivo. Here is the method: Adult male HLA-DR31DQ2/C2D mice were immunized with 50 μg of FNA or FNA Variant emulsified in Complete Freund's Adjuvant. The immunization was administered intraperitoneally. Two weeks later, the mice received another intraperitoneal immunization of 50 μg FNA or the Variant emulsified in Incomplete Freund's Adjuvant. One week later, the mice were bled via the retro-orbital route, and the serum collected. Serum was assessed for antigen-specific IgG antibodies in a direct ELISA protocol. Briefly, 96 well flat-bottomed EIA plates were coated overnight with 10 μg/ml of denatured FNA. Plates were washed, blocked with 1% Fetal Calf Serum, and serum was titered out at 1:10 dilutions. The serum was washed out of the wells, and antigen-specific IgG was detected with horse radish peroxidase conjugated anti-mouse IgG. Results are presented as serum dilution versus average optical density (×1000) in Table 1 and FIG. 21.

B1: proteinase K: Proteinase K from Tritirachium Album limber (protein, UniProt P06873 106-384, looked up)
Proteinase K: AAQTNAPWGLARISSTSPGTSTYYYDESAGQGSCVYVIDTGIEASHPEFEGRAQMVKTYYYSSRDGNGHGTHCAGTVGSRTYGVAKKTQLFGVKVLDDNGSGQYSTIIAGMDFVASDKNNRNCPKGVVASLSLGGGYSSSVNSAAARLQSSGVMVAVAAGNNNADARNYSPASEPSVCTVGASDRYDRRSSFSNYGSVLDIFGPGTSILSTWIGGSTRSISGTSMATPHVAGLAAYLMTLGKTTAASACRYIADTANKGDLSNIPFGTVNLLAYNNYQA
For B1, the “immunogenic response compared with other commercially available proteases” value in the data set on naïve human CD4+ T-cells is “lower immunogenic response”.

B2: Bacillus amyloliquefaciens subtilisin: Bacillus amyloliquefaciens subtilisin (BPN′), SEQ ID NO: 3 (protein)
chain: AQSVPYGVSQIKAPALHSQGYTGSNVKVAVIDSGIDSSHPDLKVAGGASMVPSETNPFQDNNSHGTHVAGTVAALNNSIGVLGVAPSASLYAVKVLGADGSGQYSWIINGIEWAIANNMDVINMSLGGPSGSAALKAAVDKAVASGVVVVAAAGNEGTSGSSSTVGYPGKYPSVIAVGAVDSSNQRASFSSVGPELDVMAPGVSIQSTLPGNKYGAYNGTSMASPHVAGAAALILSKHPNWTNTQVRSSLENTTTKLGDSFYYGKGLINVQAAAQ
In the case of B2, the “T cell epitopes found” value in the data set with guinea pig splenocytes is “none”. Further, the “immunogenicity in Hartley strain guinea pigs” value with Hartley guinea pigs is reported as “comparatively non-immunogenic”.

B3: FNA: BPN′ with a Y217L substitution; precursor of the variant (protein, UniProt P00782 108-382, looked up, variant Y217L)
Subtilisin BPN': AQSVPYGVSQIKAPALHSQGYTGSNVKVAVIDSGIDSSHPDLKVAGGASMVPSETNPFQDNNSHGTHVAGTVAALNNSIGVLGVAPSASLYAVKVLGADGSGQYSWIINGIEWAIANNMDVINMSLGGPSGSAALKAAVDKAVASGVVVVAAAGNEGTSGSSSTVGYPGKYPSVIAVGAVDSSNQRASFSSVGPELDVMAPGVSIQSTLPGNKYGALNGTSMASPHVAGAAALILSKHPNWTNTQVRSSLENTTTKLGDSFYYGKGLINVQAAAQ
Consider B3, for which the “average optical density (×1000), antigen-specific IgG” value in data set [1] (serum dilution 10) came out at 2937.5; in data set [1] (serum dilution 100), 2476; in data set [1] (serum dilution 1000), 1695; in data set [1] (serum dilution 10000), 641.5; in data set [1] (serum dilution 100000), 207; in data set [1] (serum dilution 1000000), 129.5. The “average optical density (×1000), antigen-specific IgG” value in data set [1] (serum dilution 10000000) is given as 88.5.

B4: B. lentis subtilisin: subtilisin protease from Bacillus lentus (GG36), SEQ ID NO: 6 (protein)
chain: AQSVPWGISRVQAPAAHNRGLTGSGVKVAVLDTGISTHPDLNIRGGASFVPGEPSTQDGNGHGTHVAGTIAALNNSIGVLGVAPSAELYAVKVLGASGSGSVSSIAQGLEWAGNNGMHVANLSLGSPSPSATLEQAVNSATSRGVLVVAASGNSGAGSISYPARYANAMAVGATDQNNNRASFSQYGAGLDIVAPGVNVQSTYPGSTYASLNGTSMATPHVAGAAALVKQKNPSWSNVQIRNHLKNTATSLGSTNLYGSGLVNAEAATR
As to B4, in the data set on guinea pig splenocytes, the “T cell epitopes found” value was “Two”. The “immunogenicity in Hartley strain guinea pigs” value with Hartley guinea pigs is reported as “highly immunogenic”.
